Assay results from JP2021054739A (dated 2021).

Target: T1, Recombinant Human CEACAM-5/CD66e Protein, CF (R&D SYSTEMS) (human, UniProt P06731 35-685)
T1 construct: Bought recombinant protein, immobilised on a CM5 chip by amine coupling; also called 抗原CEACAM5
T1 sequence (looked up): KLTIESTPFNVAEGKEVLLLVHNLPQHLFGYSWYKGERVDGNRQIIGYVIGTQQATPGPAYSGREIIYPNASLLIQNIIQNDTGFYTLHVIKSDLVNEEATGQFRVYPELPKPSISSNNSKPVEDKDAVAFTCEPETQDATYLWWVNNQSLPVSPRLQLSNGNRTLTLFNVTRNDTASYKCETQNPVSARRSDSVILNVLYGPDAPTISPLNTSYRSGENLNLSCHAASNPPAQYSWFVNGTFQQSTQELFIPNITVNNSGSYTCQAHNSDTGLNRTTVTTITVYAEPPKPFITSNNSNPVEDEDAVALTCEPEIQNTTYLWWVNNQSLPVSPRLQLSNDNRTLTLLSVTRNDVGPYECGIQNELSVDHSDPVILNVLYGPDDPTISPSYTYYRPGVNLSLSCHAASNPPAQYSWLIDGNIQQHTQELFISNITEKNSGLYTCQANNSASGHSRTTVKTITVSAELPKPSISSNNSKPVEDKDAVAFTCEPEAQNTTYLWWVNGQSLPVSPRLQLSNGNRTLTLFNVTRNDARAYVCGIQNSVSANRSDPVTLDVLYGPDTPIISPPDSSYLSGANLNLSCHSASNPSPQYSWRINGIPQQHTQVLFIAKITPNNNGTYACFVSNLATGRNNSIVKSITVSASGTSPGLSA
Assay: SPR, Biacore T200; CEACAM5 immobilised on CM5 (279 RU), CEA-V2122 as analyte, single-cycle kinetics, bivalent analyte fit; KD = kd1/ka1

Kd: 1.08 pM
B1: CEA-V2122 (scFv)
chain: QVKLEQSGAEVVKPGASVKLSCKASGFNIKDSYMHWLRQGPGQRLEWIGWIDPENGDTEYAPKFQGKATFTTDTSANTAYLGLSSLRPEDTAVYYCNEGTPTGPYYFDYWGQGTLVTVSSGGGGSGGGGSGGGGSENVLTQSPSSMSVSVGDRVNIACSASSSVPYMHWLQQKPGKSPKLLIYLTSNLASGVPSRFSGSGSGTDYSLTISSVQPEDAATYYCQQRSSYPLTFGGGTKLEIKGGGGSGGGGAEAGITGTWSDQLGDTFIVTAGADGALTGTYENAVGGAESRYVLTGRYDSAPATDGSGTALGWTVAWKNNSKNAHSATTWSGQYVGGADAKINTQWLLTSGTTNANAWKSTLVGHDTFTKVKPSAASHHHHHH
notes: Fusion of an scFv with a streptavidin mutant; also called scFv-V2122; CEA-Cupid
